{"source": "patent US20170137511A1", "about": "(CALYPSO BIOTECH, published 2017)", "binders": {"B1": {"name": "huB-E29-24 (antibody, human IgG1, kappa, V domains shown)", "VH": "EVQLVESGGGLVQPGGSLRLSCAASEFTFSNYAMSWVRQAPGKGLEWVATISRGGDYTYYPDSVKGRFTISRDNSKNTLYLQMNSLRAEDTAVYYCARRVSMITGGYAMDYWGQGTLVTVSS", "VL": "DVVMTQSPLSLPVTLGQPASISCRSSQSIVDITGNTYLEWYQQRPGQSPRLLIYKVFNRFSGVPDRFSGSGSGTDFTLKISRVEAEDVGVYYCFQDSFVPYTFGQGTKLEIKR", "notes": "Humanized B-E29 variant; human IgG1 (G1m3) / kappa (Km3), produced in CHO cells; also called huVH18/huVL1"}, "B2": {"name": "cVH1:cVK1 (antibody, human IgG1, kappa, V domains shown)", "VH": "EVRLMASGGGLVKPGGSLKLSCAASEFTFSNYAMSWVRQTPEKRLEWVATISRGGDYTYYPDSVKGRFTISRDNAKNTLYLQMSSLRSEDTALYYCARRVSMITGGWAMDYWGQGTSVTVSS", "VL": "DVLMTQTPLSLPVSLGDQASISCRSSQSIVDITGNTYLEWYLQKPGQSPKLLIYKVFNRFSGVPDRFSGSGSGTDFTLKISRVEAEDLGLYYCFQDSFVPYTFGGGTKLEIKR", "notes": "Mouse B-E29 variable regions on human IgG1 (G1m3) / kappa (Km3); also called chimeric B-E29"}, "B3": {"name": "hVH1:cVK1 (antibody, human IgG1, kappa, V domains shown)", "VH": "EVRLMASGGGLVQPGGSLRLSCAASEFTFSNYAMSWVRQAPGKGLEWVATISRGGDYTYYPDSVKGRFTISRDNSKNTLYLQMNSLRAEDTAVYYCARRVSMITGGWAMDYWGQGTLVTVSS", "VL": "DVLMTQTPLSLPVSLGDQASISCRSSQSIVDITGNTYLEWYLQKPGQSPKLLIYKVFNRFSGVPDRFSGSGSGTDFTLKISRVEAEDLGLYYCFQDSFVPYTFGGGTKLEIKR", "notes": "Human IgG1 (G1m3) / kappa (Km3)"}, "B4": {"name": "cVH1:hVK1 (antibody, human IgG1, kappa, V domains shown)", "VH": "EVRLMASGGGLVKPGGSLKLSCAASEFTFSNYAMSWVRQTPEKRLEWVATISRGGDYTYYPDSVKGRFTISRDNAKNTLYLQMSSLRSEDTALYYCARRVSMITGGWAMDYWGQGTSVTVSS", "VL": "DVVMTQSPLSLPVTLGQPASISCRSSQSIVDITGNTYLEWYQQRPGQSPRLLIYKVFNRFSGVPDRFSGSGSGTDFTLKISRVEAEDVGVYYCFQDSFVPYTFGQGTKLEIKR", "notes": "as for B3"}}, "key": {"[1]": {"biological_target": "T1, recombinant mouse IL-15 (R&D Systems cat. no. 447-ML) (mouse, UniProt P48346 49-162)", "T1 sequence": "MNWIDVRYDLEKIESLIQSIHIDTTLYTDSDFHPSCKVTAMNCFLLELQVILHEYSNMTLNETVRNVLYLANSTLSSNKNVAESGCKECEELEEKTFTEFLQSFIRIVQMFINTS", "test": "ELISA, plate-bound recombinant mouse IL-15 (100 ng/well), HRP goat anti-human IgG, absorbance at 450 nm", "protocol": "(§1) Maxisorp plates were coated with recombinant mouse IL-15 (R&D Systems cat. no. 447-ML) or rat IL-15 (Sigma cat. no. SRP4172) at 100 ng/well in carbonate coating buffer for 2 hours at 37° C. Tested IL-15 recombinant proteins have a sequence identical to that provided in SEQ ID NO: 2 (mouse IL-15) and SEQ ID NO: 3 (rat IL-15) but with an additional methionine at the N-terminal position as usually done for expressing recombinant proteins in E. Coli.\n(§2) The plate was then blocked with 2% normal goat serum for 30 min at 37° C. and washed 6 times with PBS-Tween (0.05% Tween-20 in PBS, v/v). Test antibodies were added to the plate in triplicate at various dilutions in PBS-Tween and the plate was incubated with gentle rocking at room temperature for 2 hours. As positive controls, rabbit-anti-mouse IL-15 (Acris cat. no. AP01124PU-S) or rabbit anti-rat IL-15 (Biovision cat. no. 5172) antibodies were tested at the same concentrations. The plate was then washed 6 times with PBS-Tween and an appropriate dilution of HRP-conjugated goat anti-human IgG antibody (Millipore cat. no. AP309P) for humanized antibodies, or goat-anti-rabbit IgG antibody (Sigma cat. no. A 4416) for the positive controls was added and the plate was left rocking at room temperature for 1 hour. The plate was then washed 6 times with PBS-Tween and incubated with TMB substrate. The reaction was stopped by the addition of 1M H₂SO₄ and read at 450 nm. Dose response curves of absorbance versus concentration were plotted using the Graphpad Prism software."}, "[2]": {"biological_target": "T2, recombinant human IL-15 (Prospec cat no. CYT230) (human, UniProt P40933 49-162)", "T2 sequence (P40933 other isoform, or with tags, fused parts or gaps)": "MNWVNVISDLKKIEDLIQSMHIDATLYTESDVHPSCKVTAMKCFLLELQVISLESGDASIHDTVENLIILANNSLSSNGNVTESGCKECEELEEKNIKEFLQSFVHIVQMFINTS", "test": "SPR (Biacore 3000), human IL-15 amine-coupled to the chip, antibody injected, 1:1 Langmuir fit", "protocol": "Human IL-15 (Prospec cat no. CYT230) was immobilized onto a CMS chip (GE Healthcare) using standard amine coupling, and antibodies injected at various concentrations in 120 μl phosphate buffer saline with a flow rate of […]. Binding kinetics were analyzed on a Biacore 3000 apparatus (GE Healthcare) with a 300 seconds dissociation period. Reference signal and 0 nM antibody concentration signal were substracted and data fitted using a 1:1 (Langmuir) binding model."}, "[3]": {"biological_target": "T3, recombinant Macaque Monkey IL-15 (MyBiosource cat. no. MBS948894) (Rhesus macaque / Cynomolgus monkey, UniProt P40221 49-162 (Chlorocebus aethiops entry))", "T3 construct": "Produced in yeast; also called Rhesus macaque IL-15; recombinant monkey IL-15; not shown: additional N-terminal His tag", "T3 sequence (P40221 49-162)": "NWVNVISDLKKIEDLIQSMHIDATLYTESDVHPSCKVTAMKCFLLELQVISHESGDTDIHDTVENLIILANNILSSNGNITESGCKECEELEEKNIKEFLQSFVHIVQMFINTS", "test": "ELISA, plate-bound Macaque Monkey IL-15; printed as BC50 (half-maximal binding concentration)", "protocol": "(§3) Maxisorp plates were coated with recombinant human IL-15 (Prospec cat no. CYT230) or Rhesus macaque IL-15 (MyBiosource cat. no. MBS948894) at 100 ng/well in carbonate coating buffer for 2 hours at 37° C. Since published sequences of Rhesus macaque and Cynomolgus monkey IL-15 are identical, such recombinant IL-15 protein was referred to as Macaque Monkey IL-15. Tested human IL-15 recombinant protein has a sequence identical to that provided in SEQ ID NO: 1 but with an additional methionine at the N-terminal position as usually done for expressing recombinant proteins in E. Coli. Tested recombinant Macaque Monkey IL-15 was produced in yeast and has a sequence identical to that provided in SEQ ID NO: 4 but with an additional N-terminal His tag.\n(§4) The plate was then blocked with 2% normal goat serum for 30 min at 37° C. and washed 6 times with PBS-Tween (0.05% Tween-20 in PBS, v/v). Test antibodies were added to the plate in triplicate at various dilutions in PBS-Tween and the plate was incubated with gentle rocking at room temperature for 2 hours. The plate was then washed 6 times with PBS-Tween and an appropriate dilution of goat anti-human IgG antibody (Millipore cat. no. AP309P) conjugated to horseradish peroxidase (HRP) was added to the plate and left rocking at room temperature for 1 hour. The plate was then washed 6 times with PBS-Tween and incubated with TMB substrate. The reaction was stopped by the addition of 1M H₂SO₄ and read at 450 nm. Dose response curves of absorbance versus concentration were plotted and analyzed to determine half-maximal binding concentrations (BC₅₀) using the Graphpad Prism software. BC₅₀ values expressed as molarity were extrapolated from concentration in ng/ml using a 150 kDa molecular weight value for all antibodies."}, "[4]": {"biological_target": "T4, recombinant human IL-15 (R&D systems cat. no. 247-IL) (human, UniProt P40933 49-162)", "T4 sequence (P40933 49-162 limits assumed)": "as the sequence (P40221 49-162) above, with H52L, T57A, D58S, I73S, I80V counted along it", "test": "cell-based or functional assay"}, "[5]": {"biological_target": "T5, recombinant rat IL-15 (Sigma cat. no. SRP4172) (rat, UniProt P97604 49-162)", "T5 sequence": "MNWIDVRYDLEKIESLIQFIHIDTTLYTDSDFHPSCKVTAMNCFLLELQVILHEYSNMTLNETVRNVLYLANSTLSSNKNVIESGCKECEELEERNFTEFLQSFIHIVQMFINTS", "test": "ELISA, plate-bound recombinant rat IL-15 (100 ng/well), HRP goat anti-human IgG, absorbance at 450 nm", "protocol": "as §1, §2"}, "[6]": {"biological_target": "T2, recombinant human IL-15 (Prospec cat …)", "test": "ELISA, plate-bound human IL-15; printed as BC50 (half-maximal binding concentration)", "protocol": "as §3, §4"}, "[7]": {"biological_target": "T4, recombinant human IL-15 (R&D systems …)", "test": "cell-based or functional assay", "remark": "listed apart in the source"}, "[8]": {"biological_target": "T3, recombinant Macaque Monkey IL-15 …", "test": "cell-based or functional assay"}, "[9]": {"biological_target": "T6, human IL-15 (preparation not stated) (human, UniProt P40933 49-162, limits assumed)", "T6 construct": "also called recombinant IL-15; recombinant human IL-15", "T6 sequence (P40933 49-162 limits assumed)": "as the sequence (P40221 49-162) above, with H52L, T57A, D58S, I73S, I80V counted along it", "test": "ELISA"}}, "data": [{"binder": "B1", "values": [{"measurement": "binding result", "setting": "[1]", "result": "no binding (tested: log 3.7 (about 5000 ng/mL))"}, {"measurement": "Kd", "setting": "[2]", "result": 0.329, "unit": "nM"}, {"measurement": "koff", "setting": "[2]", "result": 0.000574, "unit": "s⁻¹"}, {"measurement": "kon", "setting": "[2]", "result": "1.75e+06", "unit": "M⁻¹ s⁻¹"}, {"measurement": "EC50", "setting": "[3]", "result": 0.113, "unit": "nM"}, {"measurement": "IC50 in M07e cells for IL-15 trans presentation", "setting": "[4]", "result": 0.65, "unit": "nM"}, {"measurement": "binding result", "setting": "[5]", "result": "no binding (tested: log 3.7 (about 5000 ng/mL))"}, {"measurement": "EC50", "setting": "[6]", "result": 0.647, "unit": "nM"}, {"measurement": "IC50 in Kit 225 cells (nM), Human IL-15", "setting": "[7]", "result": 29.3, "unit": "nM"}, {"measurement": "IC50 in M-07e cells (nM), Human IL-15", "setting": "[7]", "result": 19.1, "unit": "nM"}, {"measurement": "IC50 in Kit 225 cells (nM), Macaque Monkey IL-15", "setting": "[8]", "result": 26.7, "unit": "nM"}, {"measurement": "IC50 in M-07e cells (nM), Macaque Monkey IL-15", "setting": "[8]", "result": 10.4, "unit": "nM"}]}, {"binder": "B2", "values": [{"measurement": "binding result", "setting": "[9]", "result": "binds"}]}, {"binder": "B3", "values": [{"measurement": "binding result", "setting": "[9]", "result": "binds"}]}, {"binder": "B4", "values": [{"measurement": "binding result", "setting": "[9]", "result": "binds"}]}]}
